One molecule from paper PMC11112410 (Frontiers in Immunology, 2024) can be followed below.

A word on the koff: it is the first-order rate constant of dissociation.

For experiment [1], the target named is T1, recombinant Aln g 1.0101 (alder) (alder).
T1 construct: alder pollen allergen Aln g 1, isoallergen Aln g 1.0101; source: bought: Biomay AG (recombinant)
T1 chain: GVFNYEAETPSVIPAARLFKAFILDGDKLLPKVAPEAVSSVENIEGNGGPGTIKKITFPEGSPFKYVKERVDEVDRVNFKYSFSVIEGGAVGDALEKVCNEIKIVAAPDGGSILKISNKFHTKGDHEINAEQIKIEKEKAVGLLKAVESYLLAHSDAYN
Description: ELISA; IgE inhibition: recombinant allergens (1 µg/ml) coated, pre-incubated with Nb32 (10 µg/ml) or Nb32ILZ (11.5 µg/ml) overnight at 4°C, then patients' sera 1:10; bound IgE detected with AKP-labelled anti-human-IgE antibody. As to conditions: both partners purified. (In general: In an ELISA, binding on a coated surface is turned into a signal by an enzyme label.)

For experiment [2], the target named is T2, recombinant Cor a 1.0103 (hazel) (Corylus avellana, isoallergen Cor a …, UniProt Q08407, strain).
T2 construct: source: bought: Biomay AG (recombinant)
The experiment is described as above. As to conditions: both partners purified.

The target of experiment [3] is T3, recombinant Bet v 1.0101 (birch) (birch).
T3 construct: major birch pollen allergen Bet v 1, isoallergen Bet v 1.0101; also called major birch pollen allergen; source: bought: Biomay AG (recombinant)
T3 chain: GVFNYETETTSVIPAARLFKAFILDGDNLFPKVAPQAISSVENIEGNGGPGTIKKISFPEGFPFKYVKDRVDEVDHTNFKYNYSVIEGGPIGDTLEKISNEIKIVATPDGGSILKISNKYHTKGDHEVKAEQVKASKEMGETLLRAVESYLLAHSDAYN
Description: SPR; Biacore T200, CM5 chip, 25°C; allergens amine-coupled; nanobodies injected in HBS-EP+ (Nb32ILZ 0.172-44 nM, Nb32 0.313-40 nM), multicycle kinetics, 30 min dissociation; printed kd from the 1:1 (Langmuir) binding model for both nanobodies. As to conditions: both partners purified. For orientation: In SPR one partner is held on a chip, and binding of the other changes the refractive index at the surface.

Experiment [4] addresses T1, recombinant Aln g 1.0101 (alder). Described as above. As to conditions: both partners purified.
Experiment [5] concerns the target T2, recombinant Cor a 1.0103 (hazel). The experiment is described as above. As to conditions: both partners purified.
For experiment [6], the target named is T4, recombinant Phl p 5.0101 (timothy grass) (timothy grass).
T4 construct: timothy grass pollen allergen Phl p 5, isoallergen Phl p 5.0101; also called major grass pollen allergen; source: bought: Biomay AG (recombinant)
T4 chain: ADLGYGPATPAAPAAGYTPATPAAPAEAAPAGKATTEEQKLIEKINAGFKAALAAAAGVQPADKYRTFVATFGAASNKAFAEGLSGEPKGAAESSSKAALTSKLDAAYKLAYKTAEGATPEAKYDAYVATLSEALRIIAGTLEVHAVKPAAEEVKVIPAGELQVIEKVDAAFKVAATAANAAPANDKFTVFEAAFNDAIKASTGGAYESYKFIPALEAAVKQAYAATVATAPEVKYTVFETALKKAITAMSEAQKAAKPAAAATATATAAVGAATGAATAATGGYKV
Description: ELISA; recombinant allergens or unrelated antigens (2 µg/ml in bicarbonate buffer) coated on the plate; nanobodies 2 µg/ml (Figure 2A) or 1 µg/ml (Figures 2B-C) in 0.1% BSA in PBST, overnight at 4°C; detected with HRP-labelled anti-HA-tag antibody. As to conditions: both partners purified.

The target in experiment [7] is T5, recombinant Car b 1.0109 (hornbeam) (Carpinus betulus, isoallergen Car b …, UniProt B6RQR6, strain).
T5 construct: hornbeam pollen allergen Car b 1, isoallergen Car b 1.0109; source: recombinant; provided by Prof; Barbara Bohle (IPA, MUV)
The description is as above. As to conditions: both partners purified.

Experiment [8] addresses T6, natural Cor a 1 in hazel pollen extract (hazel (endogenous in hazel pollen)).
T6 construct: natural Cor a 1 of hazel pollen extract; Unpurified extract; band at around 17 kDa on blots; source: endogenous, hazel pollen (Allergon) extract
T6 chain: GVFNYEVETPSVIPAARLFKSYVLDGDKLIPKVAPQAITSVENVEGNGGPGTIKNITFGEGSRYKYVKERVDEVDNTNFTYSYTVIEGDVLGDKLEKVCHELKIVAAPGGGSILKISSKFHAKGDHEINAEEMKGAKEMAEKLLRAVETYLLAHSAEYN
In words: far-Western, overlay or dot blot; pollen extracts separated by reducing SDS-PAGE, blotted on nitrocellulose; strips incubated with Nb32 (1 µg/ml) or Nb32ILZ (1.15 µg/ml) in Buffer A at 4°C overnight; detected with HRP-labelled anti-HA-tag antibody. As to conditions: one partner purified.

B1: Bet v 1-specific nanobody monomer Nb32 (VHH)
VHH: QVQLVESGGGSVQSGGSLRLSCAASGYTYSSYCMAWFRQAPGKKREGVAAIDTDGSTDYADSVKGRFAISQDNAKNTLYLQMNSLKPEDTAMYYCAAYGGSCRRGTGSGYWGQGTQVTVSS
notes: as the chain of m1 (Nb32ILZ) without the ILZ domain: Nb32 VHH and hinge; also called Nb32 monomer; not shown: HA, C-terminal, kept; His6, C-terminal, kept
Regarding B1, the “percent inhibition of patients' IgE binding” value is 65% in experiment [1] and 48% in experiment [2]. The figures for the koff in experiment [3], in experiment [4] and in experiment [5] were 9.9e-05 s⁻¹, 0.0001 s⁻¹ and 0.00021 s⁻¹, respectively. Also, the binding result in experiment [6] is given as “no binding”; in experiment [7] it was “binds”; in experiment [8] it was “binds”.
